In experiment [1] the target is human fibroblast activation protein (FAP) on WI-38 fibroblasts (human) (UniProt Q12884). The experiment can be described thus: competitive FACS, WI-38 cells, Cy5-labeled peptide as competitor.
Another experiment deals with mu (MOP) (h) (human) (UniProt P35372). The experiment can be described thus: reference compound of the radioligand binding assay (Ki Ref).
Experiment [2] deals with fibroblast activation protein (FAP) on FAP-expressing human WI-38 fibroblasts (human) (UniProt Q12884). Kind of experiment: competitive FACS, WI-38 cells, vs Cy5 tracer m3; D = pIC50 <=6.0.
The target in the next experiment is delta (DOP) (h) (human) (UniProt P41143). The experiment can be described thus: reference compound of the radioligand binding assay (Ki Ref).
Experiment [3] addresses human fibroblast activating protein (FAP) on WI-38 fibroblasts (human) (UniProt Q12884). The experiment can be described thus: competitive FACS on WI-38 cells vs 3 nM Cy5-labeled peptide; pIC50 category D = ≤6.0.

Consider ten substances from patent publication US20230212549A1, “COMPOUNDS COMPRISING A […] LIGAND AND USE THEREOF” (priority 2021, published 2023).

By Ki is commonly meant a measure of affinity in units of concentration, obtained from inhibition or displacement.

mu (MOP) (h) (human), sequence (P35372 whole entry): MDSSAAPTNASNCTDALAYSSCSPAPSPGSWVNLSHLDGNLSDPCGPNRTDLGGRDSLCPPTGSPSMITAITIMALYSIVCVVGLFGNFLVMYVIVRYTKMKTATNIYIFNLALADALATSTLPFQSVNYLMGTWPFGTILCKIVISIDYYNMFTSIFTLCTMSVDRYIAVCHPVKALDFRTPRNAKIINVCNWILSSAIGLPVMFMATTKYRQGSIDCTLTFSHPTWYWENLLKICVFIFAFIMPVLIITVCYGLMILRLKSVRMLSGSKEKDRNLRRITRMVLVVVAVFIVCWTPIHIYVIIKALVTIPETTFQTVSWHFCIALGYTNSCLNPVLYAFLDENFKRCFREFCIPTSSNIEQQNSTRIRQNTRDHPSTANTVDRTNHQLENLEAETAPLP
delta (DOP) (h) (human), sequence (P41143 whole entry, stated change not applied): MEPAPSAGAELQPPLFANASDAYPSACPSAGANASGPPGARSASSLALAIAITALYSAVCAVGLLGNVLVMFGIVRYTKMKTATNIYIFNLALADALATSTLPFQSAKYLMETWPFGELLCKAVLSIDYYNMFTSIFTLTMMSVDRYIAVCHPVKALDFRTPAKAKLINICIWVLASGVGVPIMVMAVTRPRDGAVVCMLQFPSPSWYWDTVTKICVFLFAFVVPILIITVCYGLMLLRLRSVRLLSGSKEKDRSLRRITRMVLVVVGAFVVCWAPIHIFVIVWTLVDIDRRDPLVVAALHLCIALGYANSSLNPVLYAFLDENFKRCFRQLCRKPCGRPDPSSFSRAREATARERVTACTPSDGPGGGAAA

Substance “Ac-Aad-[Cys(3MeBn)-Pro-Pro-Thr-Gln-Phe-Cys]-NH2 (peptide)” gave a pIC50 Category (FACS) in experiment [1] below 6 pIC50.
In the case of DAMGO (peptide), in the experiment with mu (MOP) (h) (human), the Ki was found to be 0.37 nM.
Substance “DOTA-Ttds-Hci-[Cys(3MeBn)-Pro-Pro-Thr-Gln-Phe-Cys]-Bal-OH (peptide)” displayed a pIC50 Category (FACS) in experiment [2] below 6 pIC50.
Take DPDPE (peptide): the Ki with delta (DOP) (h) (human) amounted to 1.2 nM.
“H-Ahx-[Cys(3MeBn)-Pro-Pro-Thr-Gln-Phe-Cys]-NH2 (peptide)”: the pIC50 Category (FACS) in experiment [1] was below 6 pIC50.
Same read-out and setting: to “H-Ava-[Cys(3MeBn)-Pro-Pro-Thr-Gln-Phe-Cys]-NH2 (peptide)” belongs below 6 pIC50; to “H-Gab-[Cys(3MeBn)-Pro-Pro-Thr-Gln-Phe-Cys]-NH2 (peptide)”, below 6 pIC50.
Turning to “N4Ac-PPAc-Bal--Nle-[C(3MeBn)-PPTEFC]-OH (peptide)”, the pIC50 in experiment [3] was below 6 pic50.
For “N4Ac-Ttds-Glu(AGLU′)-Nle-[Cys-(3MeBn)-Pro-Pro-Thr-Gln-Phe-Cys]-OH (peptide)”, the pIC50 Category (FACS) in experiment [1] is below 6 pIC50.
In experiment [1], “N4Ac-gGlu-Nle-[Cys-(3MeBn)-Pro-Pro-Thr-Gln-Phe-Cys]-OH (peptide)” showed a pIC50 Category (FACS) below 6 pIC50.
